B1: 3-isopropylmalate dehydrogenase, P50455 (parent)
chain: MGFTVALIQGDGIGPEIVSKSKRILAKINELYSLPIEYIEVEAGDRALARYGEALPKDSLKIIDKADIILKGPVGESAADVVVKLRQIYDMYANIRPAKSIPGIDTKYGNVDILIVRENTEDLYKGFEHIVSDGVAVGMKIITRFASERIAKVGLNFALRRRKKVTCVHKANVMRITDGLFAEACRSVLKGKVEYSEMYVDAAAANLVRNPQMFDVIVTENVYGDILSDEASQIAGSLGIAPSANIGDKKALFEPVHGAAFDIAGKNIGNPTAFLLSVSMMYERMYELSNDDRYIKASRALENAIYLVYKERKALTPDVGGNATTDDLINEIYNKLG

Variants of: B1
Conditions: Sulfurisphaera tokodaii (strain DSM 16993 / JCM 10545 / NBRC 100140 / 7); pH 7; Thermal; CD; Potassium phosphate 20 mM; structure 1WPW; whole UniProt chain shown

| Variant | Tm | change of melting temperature, mutant - wild type (higher = more stable) |
| --- | --- | --- |
| M91L I95L K152R G154A A259S F261P Y282L | 96.4 °C | 0.4 °C |
| A259S F261P | 97.1 °C | 1.1 °C |
| K152R G154A | 97.2 °C | 1.2 °C |
| G154A | 97.9 °C | 1.9 °C |
| M91L I95L | 99.2 °C | 3.2 °C |
| K152R | 95.6 °C | -0.4 °C |
| Y282L | 94.7 °C | -1.3 °C |
